According to PMC12326000:

Biological target: CanA from Pyrodictium abyssi (recombinant full-length CanA) (Pyrodictium abyssi)
Experiment: 1H NMR signal decay during polymerization; 0.97 mM CanA in 50 mM Tris-HCl, 50 mM NaCl, pH 7.5, 10% D2O, 0.4 mM DSS; polymerization started by MgCl2 and CaCl2 to 20 mM each; 298 K; about 42 h; intensity of -0.6 to 0.1 ppm fitted by single or double exponential

critical CanA concentration for polymerization: 2.48 µM
Substance: CanA from Pyrodictium abyssi (recombinant full-length CanA) (natural protein)
